From patent US9340788B2 (priority 2007, dated 2016)
Entries after “also recorded” stand apart in the source; their conditions may differ.

What was measured:
Format in all cases: cell-based, Human cytomegalovirus
HCMV [1] = assay: Plaque formation assay; conditions: HEL; CMV-GFP MOI of 1; siRNA knockdown at time of infection; counted at 14 dpi
Experimental: HEL cells transfected with PDGFRα siRNA and control cultures were infected with CMV-GFP (MOI of 1), as described in FIG. 8. Unabsorbed viruses were washed and cells were returned to 37 C. 24 h later, supernatant was harvested and used to infect naïve HEL cultures (6 wells/condition) which were monitored daily for 14 days under the fluorescence microscope for plaque formation. Photomicrographs show representative examples of the CMV-GFP infected cells at 2 and 12 days post infection (2 dpi and 12 dpi, respectively). b. Average plaques counted in 4 separate low magnification fields for each well at 14 dpi. […] As receptor levels return to normal (12 dpi), few infected (green fluorescent) cells were detected in the PDGFRα siRNA treated cultures (a, lower right panel), without formation of plaques. Plaque formation assays were repeated twice. Average counts (n=12)±SD are shown.
Plaque Formation Assays. Plaque formation was assayed. Confluent HEL cells in 6 well cluster plates were incubated with Towne-GFP (MOI of 1, 1 hr) in 0.5 ml growth media. Cells were washed and returned to 37° C. (in complete growth media). 24 h later supernatant was harvested and used to infect naïve HEL cultures which were monitored for plaque formation for 6-14 days. […] At day 14, plaques in ten low magnification fields/condition were counted (each experimental condition was tested in 6 independent wells).

HCMV [2] = assay: Measurements of infectious virus production; conditions: for infectious virus production (secondary infection): supernatants of siRNA treated HEL harvested 6 dpi used to infect naïve HEL, IE1 staining
Experimental: HEL cells were transfected with PDGFRα siRNA (smart pool, Dharmacon) or non-targeting control siRNA (Dharmacon) for 48-60 hours when maximum protein knockdown is achieved (panels a and b. Also see FIG. 3d). Cells were then infected with Towne, AD169, TR, or CMV-GFP strains of HCMV for 1 hour, washed and returned to 37° C. in complete growth media. Supernatants obtained from these cultures were used in subsequent assays measuring production of infectious virus as described below. One set of cultures (panels a and b) were used 12 hours post-infection (12 hpi) to measure the expression level of PDGFRα and IE1 by immunofluorescence. […] Cultures infected with supernatants from GFP-CMV treated cells were monitored daily under the fluorescence microscope. Over 40% of the control siRNA treated cells expressed CMV-GFP 1 day post infection (c, 1 dpi) and this number increased to 100% by day 6 (c, 6 dpi). Note the appearance of “plaques”-like groups of cells in control siRNA transfected cells (c, 3 and 6 dpi). […] To measure infectious virus production, supernatants from both control and PDGFRα siRNA treated cultures were harvested at 6 dpi and used to infect naïve HEL cells (secondary infection). […] These experiments were repeated twice.
Measurements of Infectious Virus Production. HEL cells (where indicated were treated with siRNA) were infected with HCMV Towne or CMV-GFP for 1 h, washed and grown for 6 days at 37° C. A duplicate set of cultures was analyzed by immunofluorescence at 12 hours post infection (hpi) to assess percent of IE1 positive cells, as a measure of “primary infection”. Six days post infection supernatant from these cells were centrifuged to exclude cell debris and used to infect naïve HEL cultures as described above. 12 hpi cells were stained for IE1 and IE1 positive cells were counted amongst a total of 100 cells/low magnification microscopic field, 4 fields/condition. These counts were used to determine the level of “secondary infection”—i.e., infectious virus production from the primary infected cells. Where indicated, CMV-GFP infected cells were monitored daily under fluorescence microscope. Each condition was assayed in triplicate.

HCMV [3] = assay: Viral attachment and internalization assay (pp65 immunofluorescence); conditions: HEL
Experimental: (A) HEL cells were pretreated with PBS (20 min 4° C.), IMC-3G3 (2 h, 37° C., 10 μg/ml), or PDGF-AA (20 min, 4° C., 10 ng/ml) prior to infection with HCMV (MOI of 1, 4° C., 1 h). Cells were returned to 37° C. for 30 minutes, and processed for pp65^HCMV and PDGFRα double immunofluorescence. […] All conditions were assayed in triplicate cultures. One hundred cells in 4 low magnification fields were counted. Bars represent SD.
Viral Attachment and Internalization Assays. Mouse fibroblasts and HEL cells (72 hours following siRNA transfections) were incubated with HCMV (MOI of 0.5) or mock treated for 1 hour at 4° C., after which cells were returned to 37° C. for 15, 30, or 60 min. Cells were fixed using methanol (20 min) and processed for pp65 immunofluorescence. Four low power fields were counted for each condition and pp65 positive were recorded for each 100 cells. Internalization assays were repeated twice.

HCMV [4] = assay: HCMV IE1 / viral gene expression, western blot of infected cells
Experimental: (A) pp65 immunofluorescence after HCMV treatment (1 h, 4° C.) followed by shifting to 37° C. for indicated times. Rows represent (top to bottom): HEL, PDGFRα null fibroblasts, parental fibroblasts, null fibroblasts overexpressing hPDGFRα, HEL transfected with control, or PDGFRα siRNA. Nuclei were stained with DAPI. (B) Average±S.D. pp65 positive/100 cells counted in triplicate from (A). (C) Mock or HCMV infected cells were analyzed by western blotting with the indicated antibodies. Lanes 1-4 indicate HEL, 325S, PDGFRα null and PDGFRα null over-expressing hPDGFRα, respectively. (D) HEL transfected with control or PDGFRα siRNA were mock (lanes 1) or HCMV-treated (lanes 2) and subjected to western blots with indicated antibodies. (E) Western blot of HEL and U87 lysates after infection with mock (lanes 1), HCMV (lanes 2), or HCMV pretreated with IMC-3G3 (10 μg/ml, 12 h, lanes 3) or Gleevec (100 nM, 1 h, lanes 4). […] 6 dpi, supernatants were used to infect naïve HEL cells, followed by IE1 immunostaining and quantification (secondary infection). […]
HUVEC cells were pre-treated with IMC-3G3 (10 μg/ml, Imclone, 12 h), or Gleevec (100 nM, 1 h) prior to HCMV or mock infection. 12 hours post-infection, cell lysates were analyzed by western blot for the presence of IE1 gene product. […]
(§1) Western Blot, Immunoprecipitation, and Immunofluorescence analyses. […] Cell lysates were analyzed by SDS-PAGE. […]

HCMV [5] = assay: IE1 immunofluorescence of HCMV infected HEL cells
Experimental: HEL cells were transfected with PDGFRα siRNA (smart pool, Dharmacon) or non-targeting control siRNA (Dharmacon) for 48-60 hours when maximum protein knockdown is achieved (panels a and b. Also see FIG. 3d). Cells were then infected with Towne, AD169, TR, or CMV-GFP strains of HCMV for 1 hour, washed and returned to 37° C. in complete growth media. Supernatants obtained from these cultures were used in subsequent assays measuring production of infectious virus as described below. […] Cultures infected with supernatants from GFP-CMV treated cells were monitored daily under the fluorescence microscope. Over 40% of the control siRNA treated cells expressed CMV-GFP 1 day post infection (c, 1 dpi) and this number increased to 100% by day 6 (c, 6 dpi). Note the appearance of “plaques”-like groups of cells in control siRNA transfected cells (c, 3 and 6 dpi). […]
Measurements of Infectious Virus Production. […] A duplicate set of cultures was analyzed by immunofluorescence at 12 hours post infection (hpi) to assess percent of IE1 positive cells, as a measure of “primary infection”. […] 12 hpi cells were stained for IE1 and IE1 positive cells were counted amongst a total of 100 cells/low magnification microscopic field, 4 fields/condition. […] Where indicated, CMV-GFP infected cells were monitored daily under fluorescence microscope. […]

HCMV [6] = assay: HCMV IE1 / viral gene expression, western blot of infected cells; conditions: HEL; p110α knockdown vs non-targeting siRNA
HCMV [7] = assay: HCMV pp65 western blot in HEL cells; conditions: siRNA 48 h prior to HCMV MOI of 1, western blot 2 h post-infection, indicates viral entry not inhibited
Experimental: HEL cells were transfected with siRNA against the PI3K p110α catalytic subunit (a mixture of 4 RNAi oligos, “smart pool” from Dharmacon) or non-targeting, control siRNA (Dharmacon) for 48 h prior to infection with HCMV (MOI of 1) for 1 hour. Cells were washed and cultured for 2 h-6 days. a. […] The mean number of IE1 positive cells is reduced by ˜50% in the PI3 Kp110α knockdown cultures—panel c**, p<0.01. PI3K p110α knock down is also significant (b, left panels, red fluorescence). However, unlike cells that lack a functional PDGFRα, PI3K p110α knock down cells are capable of producing infectious virus as shown by IE1 staining of the secondary infected cultures (panel d). A 10% decrease in infectious virus production in the cells treated with p110α siRNA is insignificant*, bars represent SD, […], panel c. Experiments were repeated twice, all conditions were assayed in triplicate. Similar results were obtained with both Towne-infected cultures (illustrated in this figure) and CMV-GFP.
Upper panel: HEL cells pretreated with anti-human PDGFRα antibody (10 ng/ml, for 30 min, clone AF-307-NA from R&D; lanes 1 and 4) or with AG 1295 (lane 3, […], from Calbiochem) were stimulated with Towne HCMV (lanes 2-4) or Mock infected (lane 1) for 10 min at 37 C. […]
as §1

B1: PDGFRα siRNA: "smart Pool" siRNA to hPDGFRα (Dharmacon), SEQ ID NO: 1-4 (nucleic acid)
chain 1: CGAGACUCCUGUAACCUUAUU
chain 2: GAGCUUCACCUAUCAAGUUUU
chain 3: GACAGUGGCCAUUAUACUAUU
chain 4: GAAUAGGGAUAGCUUCCUGUU
modifications: pool of four siRNAs, further chemistry not given here
plaque formation (HCMV [1]): completely blocked; also recorded: No plaques were formed | CMV-GFP expression (HCMV [2]; siRNA treated HEL cells monitored daily under fluorescence microscope, 1-6 dpi): did not express CMV-GFP | infectious virus production (secondary infection) (HCMV [2]): Near complete inhibition; also recorded: did not produce any infectious virus | viral internalization (nuclear pp65) (HCMV [3]; siRNA knockdown, 60 min after shifting to 37° C., vs non-targeting control siRNA, p<0.001): near complete blockade | viral gene expression (IE1 and pp65) (HCMV [4]; HEL cells pre-treated with siRNA, western blot, compared to controls): undetectable | IE1 gene expression (primary infection) (HCMV [5]; HEL transfected with siRNA 48-60 h, 12 hpi, vs control siRNA): Near complete inhibition; also recorded: significantly inhibited

B2: p110α siRNA: mixture of 4 RNAi oligos, "smart pool" from Dharmacon, against PI3K p110α, SEQ ID NO: 5-8 (nucleic acid)
chain 1: GCGAAAUUCUCACACUAUU
chain 2: GUGGUAAAGUUCCCAGAUA
chain 3: GCUUAGAGUUGGAGUUUGA
chain 4: GACCCUAGCCUUAGAUAAA
modifications: pool of four siRNAs, further chemistry not given here
viral gene expression (HCMV [6]): delay | pp65 HCMV expression (HCMV [7]): unchanged | decrease in infectious virus production (HCMV [2]; HEL treated with p110α siRNA, secondary infection, insignificant): 10% | infectious virus production (secondary infection) (HCMV [2]): lower levels than controls | viral entry (HCMV [3]; p110α knockdown): allowed | IE1 expression (HCMV [4]; HEL, siRNA 48 h prior to HCMV MOI of 1, western blot 2 h post-infection): inhibited | reduction of mean number of IE1 positive cells (HCMV [5]; HEL, p110α knockdown cultures, p<0.01): ~50%
